Starred links: 1 amine or outer side, 2 acyl side, 3 side chain; linkers in the order of their positions; H or OH if unused. Positions of bridges follow the written chain, without caps; N, C: chain ends. Non-standard residues stand in square brackets, D forms with d. Primed or numbered codes have the meaning given here. *: point of attachment. PyrS2″ = (S)-3-amino-1-((pent-4-en-1-yloxy)carbonyl)pyrrolidine-3-carboxylic acid (stapling residue), C=CCCCOC(=O)N1CC[C@@](N[*:1])(C(=O)[*:2])C1; B5(4) = 2,2-bis(4-pentenyl)glycine = 2-amino-2-(pent-4-en-1-yl)hept-6-enoic acid (stitching residue), C=CCCCC(CCCC=C)(N[*:1])C(=O)[*:2]; B5(5) = 2,2-bis(4-pentenyl)glycine, 2-amino-2-(pent-4-en-1-yl)hept-6-enoic acid (stitching residue), C=CCCCC(CCCC=C)(N[*:1])C(=O)[*:2]; TfeGA = (S)-2-amino-3-((carboxymethyl)(2,2,2-trifluoroethyl)amino)propanoic acid, O=C([C@H](CN(CC(=O)[*:3])CC(F)(F)F)N[*:1])[*:2]; PyrS2 = (S)-3-amino-1-((pent-4-en-1-yloxy)carbonyl)pyrrolidine-3-carboxylic acid, C=CCCCOC(=O)N1CC[C@@](N[*:1])(C(=O)[*:2])C1; B5 = 2-amino-2-(pent-4-en-1-yl)hept-6-enoic acid, C=CCCCC(CCCC=C)(N[*:1])C(=O)[*:2]; Bta = N[C@@H](Cc1csc2ccccc12)C(=O)O; αAllylPro = C=CC[C@@]1(C(=O)O)CCCN1; tBuAla = CC(C)(C)C[C@H](N)C(=O)O; 3Thi = N[C@@H](Cc1ccsc1)C(=O)O; S8 = C=CCCCCCC[C@](C)(N)C(=O)O; hLeu = CC(C)CC[C@H](N)C(=O)O; hSer = N[C@@H](CCO)C(=O)O; Dap = NC[C@H](N)C(=O)O; Ms = CS(=O)(=O)*
B1: I-544 (peptide)
peptide: Ac-[αAllylPro]D[tBuAla][B5(4)]DEAAFQ[S8]F[Bta]Q-NH2
modifications: staple 1-4, 4-11
B2: I-545 (peptide)
peptide: Ac-[αAllylPro]D[hLeu][B5(4)]DEAAFQ[S8]F[Bta]Q-NH2
modifications: staple 1-4, 4-11
B3: I-551 (peptide)
peptide: Ac-[αAllylPro]DI[B5(4)]DDAAFN[S8][3Thi][Bta]Q-NH2
modifications: staple 1-4, 4-11
B4: I-552 (peptide)
peptide: Ac-[αAllylPro]DI[B5(4)]DDAAFN[S8][3Thi][Bta]Q-NH2
modifications: staple 1-4, 4-11
B5: I-555 (peptide)
peptide: Ac-[αAllylPro]DI[B5(4)]DDAAFN[S8][3Thi][Bta]H-NH2
modifications: staple 1-4, 4-11
B6: I-556 (peptide)
peptide: Ac-[αAllylPro]DI[B5(4)]DDAAFN[S8][3Thi][Bta]H-NH2
modifications: staple 1-4, 4-11
B7: I-943 (peptide)
peptide: Ac-[αAllylPro]D[tBuAla][B5(5)]D[TfeGA]AAFN[PyrS2″][3Thi][Bta]T-NH2
modifications: staple 1-4, 4-11; also: staple isomer composition, later-eluting HPLC peak
B8: I-944 (peptide)
peptide: Ac-[αAllylPro]D[tBuAla][B5(5)]D[TfeGA]AAFN[PyrS2″][3Thi][Bta]A-NH2
modifications: staple 1-4, 4-11; also: staple isomer composition, earlier-eluting HPLC peak
B9: I-945 (peptide)
peptide: Ac-[αAllylPro]D[tBuAla][B5(5)]D[TfeGA]AAFN[PyrS2″][3Thi][Bta]A-NH2
modifications: staple 1-4, 4-11; also: staple isomer composition, later-eluting HPLC peak
B10: I-946 (peptide)
peptide: Ac-[αAllylPro]D[tBuAla][B5(5)]D[TfeGA]AAFN[PyrS2″][3Thi][Bta]L-NH2
modifications: staple 1-4, 4-11; also: staple isomer composition, earlier-eluting HPLC peak
B11: I-947 (peptide)
peptide: Ac-[αAllylPro]D[tBuAla][B5(5)]D[TfeGA]AAFN[PyrS2″][3Thi][Bta]L-NH2
modifications: staple 1-4, 4-11; also: staple isomer composition, later-eluting HPLC peak
B12: I-948 (peptide)
peptide: Ac-[αAllylPro]D[tBuAla][B5(5)]D[TfeGA]AAFN[PyrS2″][3Thi][Bta][dT]-NH2
modifications: staple 1-4, 4-11; also: staple isomer composition, earlier-eluting HPLC peak
B13: I-949 (peptide)
peptide: Ac-[αAllylPro]D[tBuAla][B5(5)]D[TfeGA]AAFN[PyrS2″][3Thi][Bta][dT]-NH2
modifications: staple 1-4, 4-11; also: staple isomer composition, later-eluting HPLC peak
B14: I-950 (peptide)
peptide: Ac-[αAllylPro]D[tBuAla][B5(4)]D[TfeGA]AAFN[PyrS2″][3Thi][Bta][hSer]-NH2
modifications: staple 1-4, 4-11; also: earlier-eluting staple isomer composition
B15: I-951 (peptide)
peptide: Ac-[αAllylPro]D[tBuAla][B5]D[TfeGA]AAFN[PyrS2][3Thi][Bta][hSer]-NH2
modifications: staple 1-4, 4-11; also: later-eluting staple isomer composition
B16: I-533 (peptide)
peptide: Ac-[αAllylPro]DA[B5(4)]D[Dap](Ms)AAFN[S8]F[Bta]Q-NH2
modifications: staple 1-4, 4-11
B17: I-534 (peptide)
peptide: Ac-[αAllylPro][Dap](Ms)A[B5(4)]DEAAFN[S8]F[Bta]Q-NH2
modifications: staple 1-4, 4-11

Molecular target: full-length beta-Catenin (Uniprot ID P35222) (Homo sapiens (Human)) (UniProt P35222)
Experiment: fluorescence polarization competition; displacement of 5FAM-TCF4(10-53) from full-length beta-catenin
Target sequence in this assay (P35222 whole entry, the tested form may be a part): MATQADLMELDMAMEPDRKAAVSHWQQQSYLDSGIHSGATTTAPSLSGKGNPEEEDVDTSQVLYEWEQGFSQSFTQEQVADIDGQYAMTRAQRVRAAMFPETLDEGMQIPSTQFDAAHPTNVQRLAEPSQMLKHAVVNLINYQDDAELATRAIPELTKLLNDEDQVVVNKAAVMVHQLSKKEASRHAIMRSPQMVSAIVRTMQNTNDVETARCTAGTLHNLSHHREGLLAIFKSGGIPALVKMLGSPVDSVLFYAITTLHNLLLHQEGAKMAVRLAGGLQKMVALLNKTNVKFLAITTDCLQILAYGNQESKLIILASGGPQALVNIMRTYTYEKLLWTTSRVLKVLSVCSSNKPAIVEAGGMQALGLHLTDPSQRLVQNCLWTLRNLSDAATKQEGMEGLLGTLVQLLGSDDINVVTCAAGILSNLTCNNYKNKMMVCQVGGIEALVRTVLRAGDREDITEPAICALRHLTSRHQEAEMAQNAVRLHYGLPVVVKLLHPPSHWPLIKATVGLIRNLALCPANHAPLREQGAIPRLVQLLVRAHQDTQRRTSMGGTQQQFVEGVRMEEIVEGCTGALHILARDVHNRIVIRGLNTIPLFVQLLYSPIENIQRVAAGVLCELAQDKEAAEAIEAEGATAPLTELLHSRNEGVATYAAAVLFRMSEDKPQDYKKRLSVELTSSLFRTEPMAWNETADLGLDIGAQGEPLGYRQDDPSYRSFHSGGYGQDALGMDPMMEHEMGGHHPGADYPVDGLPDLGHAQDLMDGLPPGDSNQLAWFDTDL

EC50 | Binder
0.024 µM | B1
0.021 µM | B2
0.045 µM | B3
0.0155 µM | B4
0.041 µM | B5
0.02 µM | B6

Molecular target: full-length beta-Catenin (Uniprot ID P35222) (Homo sapiens (Human)) (UniProt P35222)
Experiment: fluorescence polarization competition; full-length beta-catenin, 5FAM-TCF4(10-53) probe
Target sequence in this assay (P35222 2-781 limits assumed): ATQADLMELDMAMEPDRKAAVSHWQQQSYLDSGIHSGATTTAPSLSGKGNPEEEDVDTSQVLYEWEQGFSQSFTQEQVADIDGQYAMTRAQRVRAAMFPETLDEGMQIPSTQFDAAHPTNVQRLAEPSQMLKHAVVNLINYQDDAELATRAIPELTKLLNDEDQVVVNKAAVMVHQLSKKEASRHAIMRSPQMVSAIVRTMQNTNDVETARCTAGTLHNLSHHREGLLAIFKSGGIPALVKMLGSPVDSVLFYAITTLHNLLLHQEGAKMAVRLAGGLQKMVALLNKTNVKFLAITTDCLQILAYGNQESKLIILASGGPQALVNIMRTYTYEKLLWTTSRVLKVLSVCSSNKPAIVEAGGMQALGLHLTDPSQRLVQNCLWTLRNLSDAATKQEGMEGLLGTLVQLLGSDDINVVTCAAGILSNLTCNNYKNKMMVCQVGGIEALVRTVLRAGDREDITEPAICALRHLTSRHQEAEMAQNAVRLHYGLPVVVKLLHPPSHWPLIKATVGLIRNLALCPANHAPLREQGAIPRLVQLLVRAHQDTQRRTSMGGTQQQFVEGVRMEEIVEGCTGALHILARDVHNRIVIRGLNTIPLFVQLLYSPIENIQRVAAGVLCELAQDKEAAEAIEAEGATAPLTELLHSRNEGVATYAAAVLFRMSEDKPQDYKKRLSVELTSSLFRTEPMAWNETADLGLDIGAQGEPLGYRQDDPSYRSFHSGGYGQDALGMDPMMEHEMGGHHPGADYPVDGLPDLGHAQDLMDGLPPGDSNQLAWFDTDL

IC50 | Binder
1.99 µM | B7
0.761 µM | B8
1.08 µM | B9
0.798 µM | B10
1.05 µM | B11
2.43 µM | B12
2.26 µM | B13
1.63 µM | B14
1.47 µM | B15

Molecular target: full-length beta-Catenin (Uniprot ID P35222) (Homo sapiens (Human)) (UniProt P35222)
Experiment: fluorescence polarization competition; full-length beta-catenin with 5FAM-labeled TCF4 residues 10-53 probe as competitor
Target sequence in this assay (P35222 whole entry, the tested form may be a part): as the sequence (P35222 whole entry, the tested form may be a part) above

IC50 | Binder
0.155 µM | B16
5 µM | B17
0.024 µM | B1
0.021 µM | B2
0.045 µM | B3
0.0155 µM | B4
0.041 µM | B5
0.02 µM | B6

Molecular target: full-length beta-Catenin (Uniprot ID P35222) (Homo sapiens (Human)) (UniProt P35222)
Experiment: fluorescence polarization competition; 10 nM full-length beta-catenin + 10 nM 5FAM-TCF4(10-53) probe
Target sequence in this assay (P35222 whole entry, the tested form may be a part): as above

EC50 | Binder
1.99 µM | B7
0.761 µM | B8
1.08 µM | B9
0.798 µM | B10
1.05 µM | B11
2.43 µM | B12
2.26 µM | B13
1.63 µM | B14
1.47 µM | B15
0.155 µM | B16
5 µM | B17
